# Reference: US8501487B2, “Composition for use as a peptide retention standard and a method of predicting peptide hydrophobicity in liquid chromatography” (University of Manitoba, priority 2008, dated 2013)
# Like-named read-outs stand apart in the source and are kept apart here.
# Legend:
# [1] = Isocratic RP HPLC: log k vs φ plots, UHI (acetonitrile concentration at k=10) and S slope; type: physicochemical; settings: for UHI 100 Å C18 − TFA / UHI 100 Å C18 − FA / UHI 300 Å C18 − TFA / UHI 100 Å C18 − pH 10: acetonitrile concentration (ACN %) at k=10, isocratic, in %; for UHI 100 Å C18 − TFA: 0.1% TFA; for UHI 100 Å C18 − TFA / UHI 100 Å C18 − FA / UHI 300 Å C18 − TFA: ~25° C.; for UHI 100 Å C18 − FA: 0.1% formic acid; for UHI 300 Å C18 − TFA: Vydac 218 TP C18, 0.1% TFA; for UHI 100 Å C18 − pH 10: XTerra C18, 20 mM ammonium formate pH 10, ~25° C.; for S value (slope in LSS equation): isocratic, TFA, pH 2
# Description: Accordingly, in a further embodiment of the present disclosure there is included, a method of predicting hydrophobicity of a peptide: • (a) measuring retention time for each peptide of a standard peptide mixture at three or more different concentrations of acetonitrile under isocratic conditions; • (b) calculating a retention coefficient k for each peptide in the mixture and at each concentration of acetonitrile using equation (2) k=(tR−tO)/TOc (2) • wherein • tR is the retention time, • tO is system dead time, and • TOc is column dead time; • (c) for each peptide in the mixture, plotting log k vs φ, wherein φ is the acetonitrile volume fraction; • (d) for each peptide in the mixture, determining the value of φ when log k=1 and converting this to acetonitrile concentration to provide a universal hydrophobicity index (UHI); • (e) plotting retention times of each peptide vs its UHI; • (f) determining the retention time of an unknown peptide under the isocratic liquid chromatographic conditions; and • (g) determining from the plot in (e) the value of UHI that corresponds to the retention time of the unknown peptide, • wherein the UHI correlates to the hydrophobicity of the unknown peptide.
# Two chromatographic setups: micro-flow 3 μl/min and “semi-micro” at 150 μl/min were employed utilizing a micro-Agilent 1100 Series system (Agilent Technologies, Wilmington, Del.) with two column sizes: 300 μm×150 mm (micro) and 1 mm×100 mm (semi-micro). The three stationary phases studied included: Vydac 218 TP C18, 300 Å pore size, 5 μm (Grace Vydac, Hesperia, Calif.); Luna C18(2) 100 Å, 5 μm (Phenomenex, Torrance, Calif.) and XTerra C18, 120 Å, 5 μm (Waters, Milford, Mass.). Three different ion-pairing systems with linear water-acetonitrile gradients were employed: 0.1% trifluoroacetic acid (TFA) in both eluents A and B (Vydac and Luna), 0.1% formic acid (FA, Luna) and 20 mM ammonium formate pH 10 (XTerra). This provided us with four different mobile/stationary phase combinations corresponding to four versions of SSRCalc model: 100 and 300 Å for TFA, 100 Å with FA and 100 Å at pH 10. Gradient separations of the 6-peptide mixture in “semi-micro” flow mode were performed in all four systems using 0.5, 1, 2 and 4% acetonitrile per minute gradient slopes.
# Stock solutions of the 6 custom peptides (˜1 mg/ml) were prepared by dissolving in 1 ml of 0.1% TFA in water (20% acetonitrile for peptides #5 and 6). Ten microliters sample injection was applied for “semi-micro” conditions in both isocratic and gradient modes. Individual peptides, their mixture and the S1-S5 retention standard were diluted to provide ˜0.5-1 μg injection of each component. 214 nm UV detection was used. All chromatographic experiments were conducted at room temperature, ˜25° C. Dead volume of the column and connecting tubings was measured using injection of non-retained compound (water) and measuring elution time of negative peak. Retention coefficients for isocratic elution were calculated using the formula: k=(tR−t0)/t0c; where tR is retention time, t0 and t0c—system (column and tubings) and column dead time.
# Since accurate measurement of ACN % hydrophobicity using gradient elution is problematic it is proposed to use isocratic conditions for this purpose. […] This confirms once again that peptides elute from reversed-phase sorbents within a very narrow range of acetonitrile concentration. It is clear as well that the slope of these dependencies decrease systematically as peptide hydrophobicity increase. This is the reason for narrowing ACN percentage scale for shallow gradients in FIG. 2.
# It is proposed to use acetonitrile concentration at which the capacity factor of any given peptide is equal to 10 (at room temperature ˜25° C.) as a measure of peptide hydrophobicity. This value is referred to herein as peptide Universal Hydrophobicity Index (UHI), since it depends only on type of the sorbent and ion-pairing modifier. […]
# [2] = Gradient RP HPLC: acetonitrile concentration at elution and ACN % range covered; type: physicochemical; settings: gradient conditions (FIG. 2c), Luna C18(2), 0.1% TFA, gradient delay time 4.3 min taken into account
# Description: A one percent per minute acetonitrile gradient starting from 0% was used for all separations. The retention time difference between first and last peaks on chromatograms gives direct indication of ACN % scale covered. […] Such wide coverage is very important, especially for nano- and micro-flow proteomics LC applications. While normal-flow gradient system technology is well established, in nano scale LC gradient reproducibility is harder to achieve. The correct retention time distribution of the standard peptides of the present disclosure confirms the proper development of the gradient, especially at the beginning of the chromatogram. Also note the uniform distribution of the six peaks of the peptide composition of the present disclosure throughout the chromatogram; such uniformity is rarely observed in standard peptide mixtures derived from protein digests. […]
# Stock solutions of the 6 custom peptides (˜1 mg/ml) were prepared by dissolving in 1 ml of 0.1% TFA in water (20% acetonitrile for peptides #5 and 6). […] Dead volume of the column and connecting tubings was measured using injection of non-retained compound (water) and measuring elution time of negative peak. Retention coefficients for isocratic elution were calculated using the formula: k=(tR−t0)/t0c; where tR is retention time, t0 and t0c—system (column and tubings) and column dead time. […]
# [3] = rhGH tryptic digest, literature data; cited from earlier work
Substance,UHI 100 Å C18 − TFA ([1]; Luna C18(2)),UHI 100 Å C18 − FA ([1]; Luna C18(2)),UHI 300 Å C18 − TFA [1],UHI 100 Å C18 − pH 10 [1],concentration of acetonitrile required for elution [2] [%],"acetonitrile concentration at k=10 ([1]; isocratic conditions, Luna C18(2), TFA (FIG. 3)) [%]",S value (slope in LSS equation) ([1]; Luna C18(2)),S value (slope in LSS equation) [3]
LLGGGGDFR [custom synthesized standard peptide],15.53,8.55,13.35,13.65,,,,
LLLLLDFR [custom synthesized standard peptide],29.58,21.59,28.60,28.94,,,,
LLLGGDFR [custom synthesized standard peptide],20.72,13.08,18.90,18.29,,,,
LLLLDFR [custom synthesized standard peptide],26.07,18.26,24.78,24.18,29.6,26.1,14.69,
"ALILTLVS [peptide purchased from Bachem, singly charged at pH 2, reference compound]",,,,,,,13.47,
LGGGGGGDGSR [custom synthesized standard peptide],3.97,<0,1.89,1.14,,,,
"ISLLLIQSWLEPVQFLR [Peptide T9, tryptic digest product of recombinant human growth hormone]",,,,,,,,18.5
"QTYSK [Peptide T14, tryptic digest product of recombinant human growth hormone]",,,,,,,,24.3
LGGGGGGDFR [custom synthesized standard peptide],10.74,4.58,8.40,6.80,,,,
